Target: T1, CasEnd-22 (synthetic construct)
T1 chain: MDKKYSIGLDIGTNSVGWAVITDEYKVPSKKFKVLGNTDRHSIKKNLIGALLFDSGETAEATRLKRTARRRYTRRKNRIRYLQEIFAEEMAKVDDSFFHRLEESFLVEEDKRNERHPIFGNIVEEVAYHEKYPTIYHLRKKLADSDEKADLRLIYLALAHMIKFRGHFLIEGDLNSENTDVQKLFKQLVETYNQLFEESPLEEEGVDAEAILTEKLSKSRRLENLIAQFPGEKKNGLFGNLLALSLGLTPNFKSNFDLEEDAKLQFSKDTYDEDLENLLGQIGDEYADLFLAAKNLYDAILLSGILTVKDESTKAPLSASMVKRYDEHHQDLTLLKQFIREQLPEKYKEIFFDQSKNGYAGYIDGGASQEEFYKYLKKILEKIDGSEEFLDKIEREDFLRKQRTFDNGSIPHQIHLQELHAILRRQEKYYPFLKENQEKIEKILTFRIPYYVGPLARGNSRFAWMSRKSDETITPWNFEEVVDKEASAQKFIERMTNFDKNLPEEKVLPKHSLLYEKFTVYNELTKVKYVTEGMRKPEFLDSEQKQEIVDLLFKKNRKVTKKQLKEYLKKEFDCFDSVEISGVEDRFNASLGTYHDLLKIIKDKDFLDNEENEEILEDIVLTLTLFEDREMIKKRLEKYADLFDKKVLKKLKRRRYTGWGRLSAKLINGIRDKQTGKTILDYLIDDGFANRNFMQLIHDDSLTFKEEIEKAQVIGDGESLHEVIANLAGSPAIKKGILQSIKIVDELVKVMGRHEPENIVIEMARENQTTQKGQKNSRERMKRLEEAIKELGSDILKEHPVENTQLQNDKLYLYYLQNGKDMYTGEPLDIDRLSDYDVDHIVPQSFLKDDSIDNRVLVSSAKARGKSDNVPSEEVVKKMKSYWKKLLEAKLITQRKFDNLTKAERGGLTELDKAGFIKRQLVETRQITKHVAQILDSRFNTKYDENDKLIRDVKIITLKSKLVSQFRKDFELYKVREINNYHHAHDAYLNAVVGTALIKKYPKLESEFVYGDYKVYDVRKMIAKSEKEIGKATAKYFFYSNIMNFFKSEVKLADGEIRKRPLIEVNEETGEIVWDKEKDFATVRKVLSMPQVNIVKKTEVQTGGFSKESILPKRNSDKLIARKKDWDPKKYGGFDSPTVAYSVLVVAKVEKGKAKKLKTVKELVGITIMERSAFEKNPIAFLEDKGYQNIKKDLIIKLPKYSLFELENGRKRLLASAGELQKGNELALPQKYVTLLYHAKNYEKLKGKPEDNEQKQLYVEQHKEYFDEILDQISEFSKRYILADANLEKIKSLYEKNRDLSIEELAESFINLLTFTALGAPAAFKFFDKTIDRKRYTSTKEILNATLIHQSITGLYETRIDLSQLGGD
Assay: cell_activity; +++; K562, second nick guide SEQ 380; PAM not stated
Method: The ability of the candidate endonucleases, including endonucleases 1-38 (CasEnds 1-38) (set forth in Table 1 and SEQ ID NOS: 1-38, respectively), to mediate target nucleic acid editing in cells was assessed by amplicon sequencing of the endogenous hemoglobin subunit beta (eHBB) gene, wherein the percent of amplicons displaying the intended edit is measured. The editing system is comprised of a template RNA (designed to introduce the Single Nucleotide Polymorphism), a second nick guide RNA, and a fusion protein consisting of retroviral reverse transcriptase and the individual subject Cas endonuclease.
Briefly, 250 ng of plasmid DNA encoding the subject fusion protein (containing one of the subject CasEnds), 250 ng each of plasmid DNA encoding the template RNA and the second nick guide RNA were added to 15 μL Lonza SF buffer containing 250,000 K562 cells. Nucleofection was mediated utilizing program FF-120-DA on a Lonza nucleofector. The day of nucleofection was marked as day 0. At day 3, the cells were harvested and subjected to lysis buffer treatment overnight. Genomic DNA was extracted and used for targeted amplicon sequencing to evaluate the performance of each Cas endonucleases based on their percent edit efficiencies.

B1: HBB template RNA ; HBB protospacer (ssRNA ; dsDNA)
RNA: CAUGGUGCACCUGACUCCUGGUUUUAGAGCUAGAAAUAGCAAGUUAAAAUAAGGCUAGUCCGUUAUCAACUUGAAAAAGUGGCACCGAGUCGGUGCACGGCAGACUUCUCUGCCGGAGUCAGGUGC
DNA 1: CATGGTGCACCTGACTCCTG
DNA 2: CAGGAGTCAGGTGCACCATG
Q: With B1 as the binder, how does the activity read?
A: ≥ 100 % of reference

Source: patent US20250092426, “CAS ENDONUCLEASES AND RELATED METHODS” (Flagship Pioneering Innovations VII, LLC, published 2025)
